These results are taken from patent US20110301332A1 (CEPHALON AUSTRALIA VIC, published 2011).

No end group written: not given here.

T1: biotinylated human PAMP (biotinylated to an added N-terminal cysteine) (human, not fully specified; biotin on the added N-terminal cysteine; C-terminal amide)
T1 construct: also called biotin-PAMP; biotinylated human full-length PAMP
T1 peptide: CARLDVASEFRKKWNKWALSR

B1: monoclonal antibody EGX-P-E9 (antibody, V domains shown)
VH: EVQLQQSGAELVRSGASVKLSCTASGFNIKDYYIHWVKQGPEQGLEWVGYIDPENGETAYAPKFQGKATLTADTSSNTAYLQLISLTSEDTAVYYCNAPYFSLGRNYWGQGTTLTVSS
VL: NVLMTQTPLSLPVSLGDQASISCRSSQSIVHGNGDTYLEWYLQKPGQSPKLLIYKVSNRFSGVPDRFSGSGSGTDFTLKIRRVEAEDLGVYYCFQGSHVPLTFGAGTKLELK
notes: Mouse IgG purified from hybridoma medium with Protein G; also called anti-PAMP EGX-P-E9 IgG; antibody of hybridoma clone PTA-7958
B2: human PAMP (12-20) (peptide)
peptide: KWNKWALSR
modifications: not fully specified (C-terminus); ends and bridges not checked
notes: also called N-terminally truncated human PAMP, residues 12-20
B3: human PAMP (13-20) (peptide)
peptide: WNKWALSR
modifications: ends and bridges not checked
notes: also called N-terminally truncated human PAMP, residues 13-20; C-terminal-most 8 residues of PAMP
B4: native (non-biotinylated) human PAMP (peptide)
peptide: ARLDVASEFRKKWNKWALSR-NH2
notes: also called human full length PAMP; hum FL
B5: human PAMP (10-20) (peptide)
peptide: RKKWNKWALSR
modifications: ends and bridges not checked
notes: also called N-terminally truncated human PAMP, residues 10-20
B6: human PAMP (8-20) (peptide)
peptide: EFRKKWNKWALSR
modifications: ends and bridges not checked
notes: also called N-terminally truncated human PAMP, residues 8-20

The target of the experiment “human PAMP (13-20)” is B3. Description: competition ELISA with truncated PAMP peptides. As to the method: (§1) The activity of the purified monoclonal antibody EGX-P-E9 was examined by ELISA (Enzyme Linked Immunosorbent Assay, FIG. 1). Wells of a 96-well microtiter plate were coated with 5 μg/ml anti-PAMP EGX-P-E9 IgG diluted in PBS for several hours. After washing wells with PBS, the coated wells were then incubated with a skim milk-PBS solution (Milk/PBS) to block non-specific antigen-binding. To determine the EC50, an estimate of the dissociation constant, various concentration (12 μM to 2 μM in Milk/PBS) of biothinylated human PAMP (biotinylated to an added N-terminal cysteine) was incubated in EGX-P-E9-coated wells. After washing wells with PBS+0.05% Tween 20 (PBST), the EGX-P-E9-biotin-PAMP complex was captured by the streptavidin-peroxidase conjugate and quantified by measuring the A450 using the peroxidase substrate TMB fluorescent reagent (Sigma Aldrich) and Benchmark microplate reader (BioRad).
The specificity of anti-PAMP EGX-P-E9 was also tested by ELISA with competitor PAMP peptides (FIG. 2). […] Quantification of the EGX-P-E9-biotin-PAMP complex was done as described above.

Experiment [1] addresses T1, biotinylated human PAMP (biotinylated …). In words: ELISA, antibody-coated wells, titration of biotinylated human PAMP, streptavidin-peroxidase detection. As to the method:
as §1

Experiment [2] deals with B1. Description: competitive ELISA: EGX-P-E9-coated wells, 10 nM biotinylated human full-length PAMP plus 1 µM (100x) unlabeled competitor peptide, streptavidin-peroxidase, OD. Here is the method: as §1
The specificity of anti-PAMP EGX-P-E9 was also tested by ELISA with competitor PAMP peptides (FIG. 2). Antibody EGX-P-E9-coated wells were loaded with 10 nM biotinylated human full-length PAMP in Milk/PBS supplemented with one hundred fold excess (1 μM) of the following unlabeled competitor PAMP peptides: Rat PAMP, mouse PAMP, human full length PAMP (hum FL), and various N-terminally truncated human PAMPs (containing only residues 8-20, 10-20, 12-20 or 13-20). Quantification of the EGX-P-E9-biotin-PAMP complex was done as described above.

Experiment [3] deals with B1. In words: competition ELISA, non-biotinylated PAMP against 6.2 nM biotinylated PAMP on EGX-P-E9-coated wells. Here is the method: as §1
To confirm the affinity for PAMP, IC50 values were determined by competing the binding of the EGX-P-E9 antibody to the biotinylated PAMP with native (non-biotinylated) human PAMP. […] After washing the wells with PBST, the EGX-P-E9-biotin-PAMP complex was detected using the streptavidin-peroxidase conjugate and quantified by measuring the A450 using the peroxidase substrate TMB fluorescent reagent (Sigma Aldrich) and Benchmark microplate reader (BioRad) as above.

With B1, in the experiment with human PAMP (13-20), the binding result was “binds”. Further, a half-maximal response in experiment [1] (EC50) required 6.2 nM.

As for ARLDTSSQFRKKWNKWALSR-NH2 [Rat PAMP], in experiment [2], the binding result is reported as “binds”.

B2: in experiment [2], the binding result is reported as “binds”.

In the case of B3, in experiment [2], the binding result is recorded as “binds”.

As to B4, in experiment [3], the IC50 came to 4 nM.

Turning to AGPDTPSQFRKKWNKWALSR-NH2 [mouse PAMP], the binding result in experiment [2] is given as “binds”.

On to B5, for which, in experiment [2], the binding result is “binds”.

On to B6, for which, in experiment [2], the binding result is listed as “binds”.
